# Measurements: US20230340152A1 (published 2023)
# T1: CD73 construct with chicken N- and C-terminal domain sequence with human V144 and N185 knocked in (chicken; human)
# T1 chain: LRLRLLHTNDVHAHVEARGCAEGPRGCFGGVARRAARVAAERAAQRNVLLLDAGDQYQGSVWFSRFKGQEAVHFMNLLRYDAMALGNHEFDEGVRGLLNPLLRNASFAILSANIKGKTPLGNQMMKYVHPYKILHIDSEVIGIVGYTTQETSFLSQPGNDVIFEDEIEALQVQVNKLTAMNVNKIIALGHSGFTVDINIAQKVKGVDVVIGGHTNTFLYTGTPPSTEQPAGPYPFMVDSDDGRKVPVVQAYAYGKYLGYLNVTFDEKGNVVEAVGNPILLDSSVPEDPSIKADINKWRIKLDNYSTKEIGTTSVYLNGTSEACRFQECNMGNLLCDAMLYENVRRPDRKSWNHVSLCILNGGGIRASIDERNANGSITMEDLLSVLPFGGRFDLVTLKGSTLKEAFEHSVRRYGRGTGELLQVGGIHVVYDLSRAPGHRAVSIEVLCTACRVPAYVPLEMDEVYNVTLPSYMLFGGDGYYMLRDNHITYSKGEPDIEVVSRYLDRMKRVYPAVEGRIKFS
# T2: Human CD73 N185G, His-tagged (human, UniProt P21589 27-549)
# T2 sequence: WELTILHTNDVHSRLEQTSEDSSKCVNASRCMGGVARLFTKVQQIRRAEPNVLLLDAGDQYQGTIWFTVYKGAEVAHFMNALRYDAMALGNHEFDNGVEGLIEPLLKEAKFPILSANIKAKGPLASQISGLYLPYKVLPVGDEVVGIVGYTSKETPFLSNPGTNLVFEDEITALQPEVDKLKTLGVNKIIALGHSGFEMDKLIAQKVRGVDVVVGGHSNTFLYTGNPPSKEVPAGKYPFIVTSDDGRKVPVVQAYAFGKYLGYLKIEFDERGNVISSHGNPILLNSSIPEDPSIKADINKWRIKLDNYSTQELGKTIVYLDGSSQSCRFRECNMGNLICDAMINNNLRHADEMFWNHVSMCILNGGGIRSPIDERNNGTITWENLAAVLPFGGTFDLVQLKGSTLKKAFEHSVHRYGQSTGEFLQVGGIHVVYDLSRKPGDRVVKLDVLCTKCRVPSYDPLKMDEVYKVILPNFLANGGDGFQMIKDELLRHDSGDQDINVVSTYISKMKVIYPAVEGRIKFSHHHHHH
# B1: MEDI9447 (antibody, human IgG1, lambda, V domains shown)
# VH: EVQLLESGGGLVQPGGSLRLSCAASGFTFSSYAYSWVRQAPGKGLEWVSAISGSGGRTYYADSVKGRFTISRDNSKNTLYLQMNSLRAEDTAVYYCARLGYGRVDEWGRGTLVTVSS
# VL: QSVLTQPPSASGTPGQRVTISCSGSLSNIGRNPVNWYQQLPGTAPKLLIYLDNLRLSGVPDRFSGSKSGTSASLAISGLQSEDEADYYCATWDDSHPGWTFGGGTKLTVLG
# notes: Human IgG1-TM (L234F, L235E, P331S), lambda light chain; also called clone 10.3 antibody; 73combo3
# Key:
# [1] = biological target: T1, CD73 construct with chicken N- and …; assay: SPR, MEDI9447 dilutions from 5 nM to 0.3 nM
# Description: FIG. 24C depicts a close-up of the epitope residues located within the N-terminal domain of CD73. The most important residues for binding are shown highlighted and less impactful positions (Y135, K136, and N187) are in pink. The HDX interface is overlaid in blue. FIG. 24D depicts a surface representation showing that the epitope forms a near contiguous binding surface. FIG. 24E depicts a crystal structure of the open conformation of CD73 showing the position of the epitope at the apical, lateral surface of the N-terminal domain. […] In all crystal structures, the CD73 N-terminal domain, linker region, and C-terminal domain are depicted in yellow, orange, and blue, respectively.
# Binding of MEDI9447 to wild-type and mutant CD73 proteins was measured by surface plasmon resonance (SPR) using a ProteOn instrument (BioRad). CD73 crude cell supernatant protein samples were diluted to 3 µg/ml in PBS, 0.005% Tween-20, pH 7.4 (BioRad) and immobilized to ~400 RU on a HTG tris-NTA sensor chip (BioRad) pre-activated with 10 mM NiSO₄, 10 mM MES, pH 6.0 (BioRad). […] Sensorgrams were recorded by flowing two-fold dilutions of MEDI9447 prepared in PBS, 0.005% Tween-20, pH 7.4, ranging from 5 nM to 0.31 nM. […] Antibody binding was measured at a flow rate of 100 µL/min with a 3 min association phase and 20 min dissociation phase. […] Binding kinetics were analyzed using the ProteOn data analysis software. […]
# [2] = biological target: T2, Human CD73 N185G, His-tagged; assay: SPR (ProteOn), CD73 variant immobilized; 2:1 fit
# Description: Binding of MEDI9447 to wild-type and mutant CD73 proteins was measured by surface plasmon resonance (SPR) using a ProteOn instrument (BioRad). CD73 crude cell supernatant protein samples were diluted to 3 µg/ml in PBS, 0.005% Tween-20, pH 7.4 (BioRad) and immobilized to ~400 RU on a HTG tris-NTA sensor chip (BioRad) pre-activated with 10 mM NiSO₄, 10 mM MES, pH 6.0 (BioRad). An equivalently diluted crude cell supernatant sample from non-transfected cells was included as a reference channel control. Sensorgrams were recorded by flowing two-fold dilutions of MEDI9447 prepared in PBS, 0.005% Tween-20, pH 7.4, ranging from 5 nM to 0.31 nM. […] Antibody binding was measured at a flow rate of 100 µL/min with a 3 min association phase and 20 min dissociation phase. The sensor chip surface was regenerated between each run by an 800 s injection of 300 mM EDTA, pH 8.5 (BioRad) at a flow rate of 30 µL/min. Binding kinetics were analyzed using the ProteOn data analysis software. Double referencing was performed and, unless noted otherwise, a 1:1 Langmuir binding model was utilized to fit the data. Some CD73 variants containing mutations within the amino acid region 171-188 fit poorly to a 1:1 model (i.e., Chi² values >10% of Rmax). Where noted, these variants were fit with a heterogenous antigen (2:1) model. […] Due to the assay format (antigen immobilized) and the dimeric state of CD73, KD values may be exaggerated due to avidity effects. However, it is not anticipated that this impacts ranking of MEDI9447 binding to the different CD73 variants.
binder,measurement,setting,value
B1,fold of the KD for wild-type CD73,[1],< 20 fold
same,koff,[2],0.000245 s⁻¹
same,kon,[2],9.11e+06 M⁻¹ s⁻¹
